Tested on: MS2 coat protein
Experiment: apparent KD of MS2 coat protein; designed switch direction (-1 OFF switch, 1 ON switch): -1; higher = weaker reporter binding
Summary of the method: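 An oligonucleotide input, 200 uM small-molecule ligand, or no input was present during titration of SNAP-549-labelled MS2 coat protein, which was doubled from 0.7 or 1.5 nM to 3 µM. Designed RNA switches had been transcribed on Illumina chips by stalled E. coli RNA polymerase. Apparent KD per design is the median over clusters of curves fitted to normalised cluster fluorescence.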

[1] = Eterna round: R95, input ligand: FMN 200 uM
[2] = Eterna round: R95, input ligand: microRNA oligo, concentration not stated
[3] = Eterna round: R95, input ligand: none
[4] = input ligand: microRNA oligo, concentration not stated

Sequence	apparent KD of MS2 coat protein [1]	apparent KD of MS2 coat protein [2]	apparent KD of MS2 coat protein [3]	apparent KD of MS2 coat protein (input ligand: FMN 200 uM)	apparent KD of MS2 coat protein [4]	apparent KD of MS2 coat protein (input ligand: none)
GCAAAGGUAGGAUAUCCACUGUGCAACAUGAGGAUCACCCAUGUGGUUCUUACCAUAAUUGGAGAAGGGCCGUGCA [Inrariri] (puzzle: Exclusion 5)	0.0197 µM	0.0193 µM	0.0242 µM	–	–	–
GCAAAUCAUGUAGGAUAUGCGUGGCGAAGCUAUGCAGAAGGACAUGAGGAUCACCCAUGUGCUUCCGUCUGCGUACAGACGGUA [Mat - Exclusion NG 1 - Mod of JL - D18] (Eterna round: R96, puzzle: Exclusion NG 1)	–	–	–	0.0935 µM	0.0734 µM	0.0913 µM
GCAAGAAUAGGAUAUACACCAUGUCAGCUUCUAUACAACGCACAUGAGGAUCACCCAUGUAGAAGGGUUCUCUG [Exclusion-2-#10] (Eterna round: R97, puzzle: Exclusion 2)	–	–	–	0.358 µM	–	0.365 µM
GCAAGCGACUAGGCUCGUCUUAUAUUGAAAAGAUUGAAAACAUGAGGAUCACCCAUGUAUGUGGGAGAGUUGAAGUG [JR_SV3TOV2_Sub011] (puzzle: Sensor v3, turn-off variant 2)	0.286 µM	0.395 µM	0.31 µM	–	–	–
GCAAGCUUAAUCUGUAUGAACAUGAGGAUCACCCAUGUAUAAGGUAAUUCUGUUGGGUUUUUUAUUGCUCGUCUUAU [JR_STOV1_Sub026] (Eterna round: R97, puzzle: Sensor, turn-off variant 1)	–	–	–	0.0718 µM	–	0.0769 µM
GCAAGCUUUUGCUCGUCUUACAUGAGGAUCACCCAUGUCGGGUUCGGUCGUCGCGGCUGGGCUUGCCGGGCGCCGGG [-28.7, -55.8 kcal, A 10%] (Eterna round: R97, puzzle: Sensor, turn-off variant 1)	–	–	–	0.215 µM	–	0.244 µM
GCACAGGCAGGAUAUACAUGAGGAUCACCCAUGUGAUCCCUUAGGUACAAAAGUACAAGUAGAAGGGCCUGUGC [Omei Ex3 Model Bachelor's Dilema v45] (Eterna round: R97, puzzle: Exclusion 3)	–	–	–	0.146 µM	–	1.46 µM
GCACGAAGUGUAGGAUAUCUGUGCGAUUAGCUCAGAGAAGGACACAUGAGGAUCACCCAUGUGUUCCGCGGAAGCAAUACGUGC [Eli exng1 - 057] (Eterna round: R96, puzzle: Exclusion NG 1)	–	–	–	0.0107 µM	0.00973 µM	0.0133 µM
GCACGGAGUGUAGGAUAUCUGUGCGAUUAGCUCAGAGAAGGACACAUGAGGAUCACCCAUGUGUUCCACCGAAAGGUUCCGUGC [Eli exng1 - 048] (Eterna round: R96, puzzle: Exclusion NG 1)	–	–	–	0.011 µM	0.0084 µM	0.0114 µM
GCACUGCGAGGAUAUACAUGAGGAUCACCCAUGUAUCGGUAGUCAAGGUUAAUUUAAGGUAGAAGGCGCGUAAA [JR_Ex3_Sub005] (Eterna round: R97, puzzle: Exclusion 3)	–	–	–	0.0274 µM	–	0.0235 µM
GCAGCAACUCUAAUCAAUCCAACAUGAGGAUCACCCAUGUCUCAGGAUAUGGUCUGGAUUACAGGCCAGAAGGGAGAAAGCUGC [Eli exng3 - 046] (Eterna round: R96, puzzle: Exclusion NG 3)	–	–	–	0.00907 µM	0.00762 µM	0.0119 µM
GCAGCAACUCUCACUAACUAAACAUGAGGAUCACCCAUGUCUCAGGAUAUGGUCUGGAUUACAGGCCAGAAGGGAGAAAGCUGC [Eli exng3 - 040] (Eterna round: R96, puzzle: Exclusion NG 3)	–	–	–	0.00973 µM	0.0106 µM	0.0131 µM
